# Source: patent publication US10562935B2, “Stapled peptides and uses thereof” (London Health Sciences Centre Research Inc., priority 2015, dated 2020)
# Where a SMILES comes first, the peptide text is derived from it. Bridges are numbered along the chain shown (N, C = ends).
# How the values were obtained:
# circular dichroism = settings: pH ns, 0.5 mM
# [1] = Circular dichroism (CD) spectroscopy of linear and stapled peptides in water or 40% TFE/water (Example 3); format: physicochemical; settings: for [0]208 mean residue ellipticity: λ = 208 nm; for [0]222 mean residue ellipticity: λ = 222 nm
# Experimental: CD spectra were obtained on a Jasco J-810 spectropolarimeter and recorded in the range of 180-260 nm. Peptide solutions were prepared with a 0.1M phosphate buffer solution to a concentration of 0.5 mM. The measurements were performed in quartz cuvettes with a path length of 1 mm and a scanning speed of 10-50 nm/min. Five individual data points were averaged by the instrument in order to obtain the reported CD spectrum. The measurements were carried out at 20° C. A blank solution of 0.1M phosphate buffer solution was run before every measurement in order to baseline correct for any UV-interference observed from the buffer.
# CD data for the 14- and 15-mer peptides containing HABD2 (VSKLRSQLVKRKQN, SEQ ID NO: 2) and HABD1 (NLKQKIKHVVKLKDE, SEQ ID NO: 4) and cyclized derivatives thereof in water or 40% TFE/water are provided below in Tables 8 (water) and 9 (40% TFE/water). Tables 8 and 9 provide the mean residue ellipicity ([θ] deg cm^2 dmol^−1) at λ=222 and 208 nm for each peptide and ratios of ellipticities at 222/208. Each of the peptides was acetylated at its amino terminus and amidated at its carboxy terminus.
# CD data for linear peptides having the sequences […] (SEQ ID NO: 5) and […] (SEQ ID NO: 6) and cyclized derivatives thereof in water or 40% TFE/water are provided below in Tables 12 (water) and 13 (40% TFE/water). Tables 12 and 13 provide the mean residue ellipicity ([0] deg cm^2 dmol^−1) at λ=222 and 208 nm for each peptide and ratios of ellipticities at 222/208. Each of the peptides was acetylated at its amino terminus and amidated at its carboxy terminus.
# Circular Dichroism (CD) spectroscopy is a tool that is used to study the secondary structure characteristics of a compound. Peptides and proteins can fold into organized structures, such as alpha helices and beta sheets, which are the result of complex hydrogen bonding and other interactions between amino acid side chains, as well as adopt a random coil formation, which lacks much of the organization of the other two structures. The CD spectrum of an alpha helix is characterized by two local minima at 208 nm and 222 nm. The ratio of the values of the molar ellipticities at these wavelengths ([θ]222/[θ]208) is a strong indication of the relative helicity of a compound; a compound is more helical when the ratio of these two values approaches 1.0. Synthetic constraints introduced to the peptide backbone can force a peptide chain to increase its helical character. These constraints can be introduced by staples, of varying types, which allow cyclization of the peptide backbone to take place.
# [2] = Function blocking score: total percent inhibition over migration, invasion, inflammation and fibrosis assays divided by number of assays; format: cell-based; settings: total percent inhibition for all assays tested divided by number of assays
# Experimental: As documented in the Examples hereinabove, a variety of cyclized peptides were produced that contained the HA-binding domain 1 (HABD1), HA-binding domain 2 (HABD2), or both HABD1 and HABD2. These peptides were evaluated for helicity, direct HA binding and in a number of cell-based bioassays (effects on migration, invasion, NFkB activation, and TGFβ1 production) that are relevant to inflammation and fibrosis. The relationships amongst helicity, HA-binding, and biofunction were evaluated. Peptides were divided into three groups for this analysis: (1) peptides containing HABD1 (“HABD1”); (2) peptides containing HABD2 (“HABD2”); and peptides containing most or all of HABD1 and all of HABD2 (“HABD1+HABD2”). R^2 values were calculated to quantify the relationships between helicity, HA-binding, and biofunction were evaluated.
# The results of this analysis for the HABD1 peptides are shown below in Tables 15 and 16. Table 16 provides a function blocking scores for each of the tested peptides and provides R^2 values showing the relationship between HA binding and helicity (“HA binding vs. CD”), HA binding and function-blocking score (“HA binding vs. FBS”) and helicity vs. function-blocking score (“CD vs. FBS”). The same type of summaries are provided for the HABD2 peptides in Tables 17 and 18 below, and for the HABD1+HABD2 peptides in Tables 19 and 20 below.
# Function blocking scores were calculated as the total percent inhibition achieved by the peptide for all assays the peptides were tested in, divided by the number of assays. Assays included migration, invasion, inflammation and fibrosis assays. Not all peptides were tested all of the assays. All peptides were included for deriving R^2 values (Pearson's formula).
# [3] = test system: RHAMM-overexpressing (LR21) cells; test: Cell invasion assay (Boyden chamber with MATRIGEL, Chemicon ECM555); format: cell-based; settings: % inhibition relative to positive control; 10 ng/mL of peptide
# Experimental: Compounds 132, 133, 135, 150-153, 156, 265-269, and 275-278 were evaluated for their ability to inhibit cellular invasion. Invasion assays were performed using Chemicon Assay Kits ECM555 (Invasion); Billerica, Mass., USA) according to the manufacturer's protocol. Invasion assays are performed in an identical manner as the migration assays described above in Example 5, except that cells are required to invade through a layer of extracellular matrix (MATRIGEL) coating the filter that separates the upper and lower Boyden chambers. Briefly, sub-confluent cultures of RHAMM-overexpressing (LR21) cells were serum starved overnight before plating 7.5×10^4 cells in the upper chamber of a Boyden chamber either in the presence or absence of 10 ng/mL of peptide. 30% fetal bovine serum in DMEM was used as the chemo-attractant in the lower chamber. The number of cells that had crossed the membrane after 20 hours was assessed using the CYQUANT® GR Dye and lysis buffer solution provided in the kit. Fluorescence was measured with a fluorescent plate reader using 480/520 nm filter set.
# Values the mean and SDM of n=3 replicates. *p<0.05, **p<0.01, ***p<0.001 All statistics compared to 30% serum control. In FIG. 49, where bars are labeled with two compound numbers (“152/135”) this means that the data were pooled for the indicated compound, i.e., for the non-acetylated and acetylated versions of the indicated peptide.
# [4] = Direct HA-binding ELISA of biotinylated peptides on HA coated plates (Example 4); set-up: key to HA binding: absorbance (color) read at 450 nm
# Experimental: Each of these peptides was biotinylated at its amino-terminus, and an AEEA spacer was included to separate the peptide sequence from the biotin molecule.
# HA coated plates were purchased (ECHELON). Peptides were dissolved in 2 mM PBS to constant molarity, aliquoted and stored at −20° C. until used in assays. 7 kDa biotin-labeled RHAMM (SEQ ID NO: 1) was synthesized and used as a positive control in these assays. Biotin labeled peptides were added to the HA coated wells (n=3 replicates/peptide) at either 0.8 or 0.08 μM and then incubated with shaking overnight at 4° C. Wells were washed free of excess unbound peptides using 200 μl PBS (4 times). 100 μl of Streptavidin-HRP was then added to each well and the plate was incubated at room temperature for 1 hr. The plate was then washed with 200 μl PBS/well 4 times and TMB Liquid Substrate System for ELISA (Sigma) was added to each well, incubated for 5-10 min at room temperature and color read at 450 nm Plate Reader (BioTek, SYNERGY H4, Hybrid Reader).
# Direct HA-binding results for the biotinylated equivalents of compounds 132 and 150-161 are show in FIG. 39, and results for compounds 265-268 and 275-278 are shown in FIG. 40.
# [5] = test system: RHAMM-overexpressing (LR21) cells; test: Cell migration assay (Boyden chamber, Chemicon ECM510); format: cell-based; settings: % inhibition relative to positive control
# Experimental: Compounds 132, 133, 150-152, 156-161, 265-269, 275, 277, and 278 were evaluated for their ability to inhibit cell migration. Cell migration assays were performed using Chemicon Assay Kits (ECM510 (Migration); Billerica, Mass., USA) according to the manufacturer's protocol. Briefly, sub-confluent cultures of RHAMM-overexpressing (LR21) cells were serum starved overnight. 7.5×10^4 cells were then plated in the upper chamber of a Boyden chamber. either in the presence or absence of 10 ng/mL of peptide. 30% fetal bovine serum in DMEM was used as the chemo-attractant in the lower chamber. The number of cells that had crossed the membrane after 20 hours was assessed using the CYQUANT GR Dye and lysis buffer solution provided in the kit. Fluorescence was measured with a fluorescent plate reader using a 480/520 nm filter set.
# Values are the mean and SDM of n=3 replicates. *p<0.05, **p<0.01. All statistics compare to 30% serum control. In FIGS. 41-43, where bars are labeled with two compound numbers (“133/150” and “135/152”) this means that the data were pooled for the indicated compounds, i.e., for the non-acetylated and acetylated versions of the indicated peptides.
# [6] = water (methods paragraph says 0.1 M phosphate; tables say water), 20 °C
# [7] = as repeated in tables 16, 18, 20
compound,measurement,setting,value
CC(C)C[C@H](NC(=O)[C@H](CCCCN)NC(=O)[C@H](CO)NC(=O)[C@@H](N)C(C)C)C(=O)N[C@@H](CCCNC(=N)N)C(=O)N[C@H]1CCC(=O)NCCCC[C@@H](C(=O)N[C@@H](CCCNC(=N)N)C(=O)N[C@@H](CCCCN)C(=O)N[C@@H](CCC(N)=O)C(=O)N[C@@H](CC(N)=O)C(N)=O)NC(=O)[C@H](C(C)C)NC(=O)[C@H](CC(C)C)NC(=O)[C@H](CCC(N)=O)NC1=O (H-VSKLREQLVKRKQN-NH2; lactam 6-10),helicity,"circular dichroism; Milli-Q water, ns °C",-4400 MRE222
CC(=O)N[C@H](C(=O)N[C@@H](CO)C(=O)N[C@@H](CCCCN)C(=O)N[C@@H](CC(C)C)C(=O)N[C@H]1CCCCNC(=O)CC[C@@H](C(=O)N[C@@H](CCCCN)C(=O)N[C@@H](CCCNC(=N)N)C(=O)N[C@@H](CCCCN)C(=O)N[C@@H](CCC(N)=O)C(=O)N[C@@H](CC(N)=O)C(N)=O)NC(=O)[C@H](CC(C)C)NC(=O)[C@H](CCC(N)=O)NC(=O)[C@H](CO)NC1=O)C(C)C (Ac-VSKLKSQLEKRKQN-NH2; lactam 5-9),helicity,circular dichroism; [6],-974 MRE222
CC[C@H](C)[C@H](NC(=O)[C@H](CCCCN)NC(=O)[C@H](CCC(N)=O)NC(=O)[C@H](CCCCN)NC(=O)[C@H](CC(C)C)NC(=O)[C@H](CC(N)=O)NC(C)=O)C(=O)N[C@H]1CCC(=O)NCCCC[C@@H](C(=O)N[C@@H](CC(C)C)C(=O)N[C@@H](CCCCN)C(=O)N[C@@H](CC(=O)O)C(=O)N[C@@H](CCC(=O)O)C(N)=O)NC(=O)[C@H](C(C)C)NC(=O)[C@H](C(C)C)NC(=O)[C@H](Cc2c[nH]cn2)NC1=O (Ac-NLKQKIEHVVKLKDE-NH2; lactam 7-11),helicity,circular dichroism; [6],-3850 MRE222
CC(=O)N[C@H](C(=O)N[C@@H](CO)C(=O)N[C@@H](CCCCN)C(=O)N[C@H]1CCC(=O)NCCCC[C@@H](C(=O)N[C@H](C(=O)N[C@@H](CCCCN)C(=O)N[C@@H](CCCNC(=N)N)C(=O)N[C@@H](CCCCN)C(=O)N[C@@H](CCC(N)=O)C(=O)N[C@@H](CC(N)=O)C(N)=O)C(C)C)NC(=O)[C@H](CCC(N)=O)NC(=O)[C@H](CO)NC(=O)[C@H](CCCNC(=N)N)NC1=O)C(C)C (Ac-VSKERSQKVKRKQN-NH2; lactam 4-8),helicity,circular dichroism; [6],-3350 MRE222
CC(C)C[C@H](NC(=O)[C@H](CCCCN)NC(=O)[C@H](CO)NC(=O)[C@@H](N)C(C)C)C(=O)N[C@@H](CCCNC(=N)N)C(=O)N[C@@H](CO)C(=O)N[C@H]1CCC(=O)NCCCC[C@@H](C(=O)N[C@@H](CCCCN)C(=O)N[C@@H](CCC(N)=O)C(=O)N[C@@H](CC(N)=O)C(N)=O)NC(=O)[C@H](CCCCN)NC(=O)[C@H](C(C)C)NC(=O)[C@H](CC(C)C)NC1=O (H-VSKLRSELVKKKQN-NH2; lactam 7-11),helicity,"circular dichroism; Milli-Q water, ns °C",-1570 MRE222
CC[C@H](C)[C@H](NC(=O)[C@H](CCCCN)NC(=O)[C@H](CCC(N)=O)NC(=O)[C@H](CCCCN)NC(=O)[C@H](CC(C)C)NC(=O)[C@H](CC(N)=O)NC(C)=O)C(=O)N[C@@H](CCCCN)C(=O)N[C@H]1CCC(=O)NCCCC[C@@H](C(=O)N[C@@H](CCCCN)C(=O)N[C@@H](CC(=O)O)C(=O)N[C@@H](CCC(=O)O)C(N)=O)NC(=O)[C@H](CCCCN)NC(=O)[C@H](C(C)C)NC(=O)[C@H](C(C)C)NC1=O (Ac-NLKQKIKEVVKKKDE-NH2; lactam 8-12),helicity,circular dichroism; [6],-1800 MRE222
CC[C@H](C)[C@@H]1NC(=O)[C@H](CCCCN)NC(=O)[C@@H](NC(=O)[C@H](CCCCN)NC(=O)[C@H](CC(C)C)NC(=O)[C@H](CC(N)=O)NC(C)=O)CCC(=O)NCCCC[C@@H](C(=O)N[C@H](C(=O)N[C@H](C(=O)N[C@@H](CCCCN)C(=O)N[C@@H](CC(C)C)C(=O)N[C@@H](CCCCN)C(=O)N[C@@H](CC(=O)O)C(=O)N[C@@H](CCC(=O)O)C(N)=O)C(C)C)C(C)C)NC(=O)[C@H](CCCCN)NC1=O (Ac-NLKEKIKKVVKLKDE-NH2; lactam 4-8),helicity,circular dichroism; [6],-2460 MRE222
Ac-NLKQKIKHVVKLKDE-NH2 [Compound 156],[θ]222/[θ]208 ratio of ellipticities,"[1]; [θ]222/[θ]208 ratio in water, summary tables 15, 17, 19",0.11
same,[θ]222/[θ]208 ratio of ellipticities,[1]; [7],0.11
same,[0]222/[0]208 ratio of ellipticities,[1]; in 40% TFE/water,0.74
same,[0]222/[0]208 ratio of ellipticities,[1]; in water,0.11
same,alpha-helical character by CD (in words),[1]; in water,nominal alpha helical character in water
same,[0]208 mean residue ellipticity,[1]; in 40% TFE/water,-1.03E+04 deg cm^2 dmol^−1
same,[0]208 mean residue ellipticity,[1]; in water,-9.00E+02 deg cm^2 dmol^−1
same,[0]222 mean residue ellipticity,[1]; in 40% TFE/water,-8.57E+03 deg cm^2 dmol^−1
same,[0]222 mean residue ellipticity,[1]; in water,-1.01E+02 deg cm^2 dmol^−1
same,Function blocking score (FBS),[2],0
same,Invasion (% inhib.),[3],0 % inhib.
same,HA binding,[4]; [7],0.01
same,HA direct binding (OD),"[4]; optical density, summary tables 15, 17, 19",0.01 OD
same,Migration (% inhib.),[5],0 % inhib.
